In the supplement of paper PMC9233669:
This sample holds only a part of the variants without activity.

Tests used:
biotinyl-Val-oxazolone = assay: self-aminoacylation, catalytic enhancement (BVO) (fold over background); higher = more active; k-Seq, kA / k0A0; sequences stand for … in GGGAAUGGAUCCACAUCUACGAAUUC…UUCACUGCAGACUUGACGAAGCUG
Method in brief: (§1)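 Mutagenized RNA pools with a 21-nt variable region (0.43 μM) were reacted with each biotinyl-aminoacyl-oxazolone at 2–1250 μM for 90 minutes at room temperature, in 50 μL HEPES/NaCl/KCl/MgCl2/CaCl2 buffer containing 5% acetonitrile at pH 6.9–7.0. RNA captured on streptavidin was quantified by triplicate qPCR and by Illumina sequencing. The fraction reacted for each sequence was fit to a pseudo-first-order model with bootstrapping, and catalytic enhancement is the median kA divided by the uncatalyzed rate, taken as the low-activity peak of a bimodal Gaussian fit.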

biotinyl-Leu-oxazolone = assay: self-aminoacylation, catalytic enhancement (BLO) (fold over background); higher = more active; k-Seq, kA / k0A0; sequences stand for … in GGGAAUGGAUCCACAUCUACGAAUUC…UUCACUGCAGACUUGACGAAGCUG
Method in brief: as §1

biotinyl-Phe-oxazolone = assay: self-aminoacylation, catalytic enhancement (BFO) (fold over background); higher = more active; k-Seq, kA / k0A0; sequences stand for … in GGGAAUGGAUCCACAUCUACGAAUUC…UUCACUGCAGACUUGACGAAGCUG
Method in brief: as §1

biotinyl-Met-oxazolone = assay: self-aminoacylation, catalytic enhancement (BMO) (fold over background); higher = more active; k-Seq, kA / k0A0; sequences stand for … in GGGAAUGGAUCCACAUCUACGAAUUC…UUCACUGCAGACUUGACGAAGCUG
Method in brief: as §1

biotinyl-Trp-oxazolone = assay: self-aminoacylation, catalytic enhancement (BWO) (fold over background); higher = more active; k-Seq, kA / k0A0; sequences stand for … in GGGAAUGGAUCCACAUCUACGAAUUC…UUCACUGCAGACUUGACGAAGCUG
Method in brief: as §1

biotinyl-Ile-oxazolone = assay: self-aminoacylation, catalytic enhancement (BIO) (fold over background); higher = more active; k-Seq, kA / k0A0; sequences stand for … in GGGAAUGGAUCCACAUCUACGAAUUC…UUCACUGCAGACUUGACGAAGCUG
Method in brief: as §1

Sequence	self-aminoacylation (biotinyl-Val-oxazolone)	self-aminoacylation (biotinyl-Leu-oxazolone)	self-aminoacylation (biotinyl-Phe-oxazolone)	self-aminoacylation (biotinyl-Met-oxazolone)	self-aminoacylation (biotinyl-Trp-oxazolone)	self-aminoacylation (biotinyl-Ile-oxazolone)
CUUACCCUGGUCAUCGAGCGA [Fam2.1 aminoacylation ribozyme variant]	1.35	1.96	1.09	2.13	2.72	1.36
CCACACUUCAAACAAUUGGUC [Fam1B.1 aminoacylation ribozyme variant]	0.59	0.588	1.55	0.659	1	0.737
AUUACCCUUGUAAUCGAGUGA [Fam2.1 aminoacylation ribozyme variant]	6.66	16.3	127	16.4	21.1	6.93
AUUCACCUAGGCCAUCGGGGG [Fam2.2 aminoacylation ribozyme variant]	2.82	4.55	10.8	2.64	2.28	2.5
AACUUUGCUAAUAGUCUCAAG [Fam3.1 aminoacylation ribozyme variant]	1.42	1.54	3.43	1.39	1.5	1.47
CUACUUCUAACUAUCGGUCUG [Fam1A.1 aminoacylation ribozyme variant]	0.841	0.628	0.796	0.766	0.65	0.734
AUUCACCUACGUAAUCGGGUG [Fam2.2 aminoacylation ribozyme variant]	3.4	9.03	45.9	6.45	5.66	3.09
AAGUGUGCUAAUAGUCGCAUG [Fam3.1 aminoacylation ribozyme variant]	1.3	1.86	1.09	1.44	1.98	1.38
AUUACCCUGGUCAUCCAGUGU [Fam2.1 aminoacylation ribozyme variant]	1.81	3.15	7.23	3.14	3.1	1.95
AUUAACCUAGGUCUUCGGGUG [Fam2.2 aminoacylation ribozyme variant]	2.73	3.58	17.9	2.98	2.95	2.64
AAGUUUGCUUAUAGUUGCAAG [Fam3.1 aminoacylation ribozyme variant]	0.987	0.894	0.81	0.919	0.591	0.877
CCACACUUCAAGAACUCGGUC [Fam1B.1 aminoacylation ribozyme variant]	1.01	1.01	0.548	0.696	0.586	0.836
AAUACCCUGGUCAUCGCGUGA [Fam2.1 aminoacylation ribozyme variant]	8.98	15.7	118	16.9	16.1	7.23
CCACAAUUCAAGCAAUCGGUU [Fam1B.1 aminoacylation ribozyme variant]	1.65	1.39	1.16	1.76	1.55	1.68
CUACUUCAAAAAAUCGCUCUG [Fam1A.1 aminoacylation ribozyme variant]	0.484	0.486	0.901	0.492	0.727	0.539
CGACACUUCAAGCAAGCGGUC [Fam1B.1 aminoacylation ribozyme variant]	0.939	1.23	0.837	1.27	1.21	1.09
CCACACUUCCAGCAUUCGGUC [Fam1B.1 aminoacylation ribozyme variant]	2.81	2.42	1.12	2.05	2.58	2.48
CUACUUCCAACAAGCGGUCUG [Fam1A.1 aminoacylation ribozyme variant]	0.95	0.79	0.744	1.04	0.678	1.21
GAGUUUGCUAAUAGUCUCAAG [Fam3.1 aminoacylation ribozyme variant]	1.08	0.855	6.85	0.852	2.43	1.32
CUAUUUCAAACAAGCGGUCUG [Fam1A.1 aminoacylation ribozyme variant]	0.933	1.02	0.738	0.882	0.77	1.01
AUUACCCUGGUCAUCGACAGA [Fam2.1 aminoacylation ribozyme variant]	0.774	0.738	0.705	0.716	0.676	1.04
AAUUUUGCUAAUAGUUGCAAG [Fam3.1 aminoacylation ribozyme variant]	1.53	1.63	2.06	1.54	1.75	1.73
AUUCACCAUGGUCAUCGGGUG [Fam2.2 aminoacylation ribozyme variant]	6.37	15.6	69.7	10.3	10.5	6.21
GAGUUUGCAAAUAGUCGCAAG [Fam3.1 aminoacylation ribozyme variant]	0.746	1.02	1.83	0.838	0.87	1.22
AUUACCCUCUUCAUCGAGUGA [Fam2.1 aminoacylation ribozyme variant]	1.11	1.41	1.52	1.33	0.851	1.02
ACUAUCCUGGUCAUCGAGUGA [Fam2.1 aminoacylation ribozyme variant]	3.62	6.46	18.4	6.19	8.06	3.7

Sequence	self-aminoacylation (biotinyl-Val-oxazolone)	self-aminoacylation (biotinyl-Leu-oxazolone)	self-aminoacylation (biotinyl-Phe-oxazolone)	self-aminoacylation (biotinyl-Met-oxazolone)	self-aminoacylation (biotinyl-Trp-oxazolone)	self-aminoacylation (biotinyl-Ile-oxazolone)
AUUACCCUGGUCAGCGAGGGA [Fam2.1 aminoacylation ribozyme variant]	1.19	0.891	0.743	1.34	2.06	1.54
CCACACUUCAUGCAAUCUGUC [Fam1B.1 aminoacylation ribozyme variant]	0.479	0.35	0.605	0.391	0.277	0.454
UUUCCCCUGGUCAUCGAGUGA [Fam2.1 aminoacylation ribozyme variant]	3.87	5.44	39.1	6.12	7.7	3.26
AUUACCCUGGUCAUCGGGCGA [Fam2.1 aminoacylation ribozyme variant]	4.62	10	20.1	8.99	8.14	4.15
CUCCUUCACACAAUCGGUCUG [Fam1A.1 aminoacylation ribozyme variant]	0.985	0.686	1.55	0.799	0.895	0.907
AUUGCCCUGGUCAUGGAGUGA [Fam2.1 aminoacylation ribozyme variant]	2.58	4.11	23.7	3.81	4.3	2.9
AUUCAACUAGGCCAUCGGGUG [Fam2.2 aminoacylation ribozyme variant]	2.31	3.74	21.5	3.66	3.9	2.61
AGUUUUGCUAAUAGUCGCAAG [Fam3.1 aminoacylation ribozyme variant]	2.1	2.61	4.55	2.35	3.48	2.4
AUCCACCUACGUCAUCGGGUG [Fam2.2 aminoacylation ribozyme variant]	3.75	6.58	41.3	6.46	4.86	4.29
AUUACACUGGUCAUCGAAUGA [Fam2.1 aminoacylation ribozyme variant]	1.25	0.978	0.652	0.931	1.15	1.12
CUACCUCAAACAAUCGGUCCG [Fam1A.1 aminoacylation ribozyme variant]	1.18	1.9	1.05	1.15	1.2	1.04
ACACAAUUCAAGCAAUCGGUC [Fam1B.1 aminoacylation ribozyme variant]	1.18	1.21	1.95	1.21	1.67	1.44
AUUCACCUAGGAGAUCGGGUG [Fam2.2 aminoacylation ribozyme variant]	3.54	7.83	34.3	4.82	5.46	3.82
CCACACGUCAAGCAAUCGGUC [Fam1B.1 aminoacylation ribozyme variant]	1.65	1.17	0.848	1.16	1.16	1.11
UUUCACCUAGGUCAUCCGGUG [Fam2.2 aminoacylation ribozyme variant]	4.32	5.87	35.9	4.88	6.5	4.39
AGGUUUGCGAAUAGUCGCAAG [Fam3.1 aminoacylation ribozyme variant]	1.75	1.82	7.75	2.24	3.06	1.63
AUUCACCUAUGUUAUCGGGUG [Fam2.2 aminoacylation ribozyme variant]	3.43	7.49	41.3	5.62	5.74	3.19
AAGUUUGCUAUAAGUCGCAAG [Fam3.1 aminoacylation ribozyme variant]	0.9	0.726	1	0.995	0.892	1.12
AAGAUUGCUAAUAGUGGCAAG [Fam3.1 aminoacylation ribozyme variant]	0.702	0.906	0.997	0.871	0.941	0.786
AUUCACCUAGGUCAUCCGGGG [Fam2.2 aminoacylation ribozyme variant]	2.84	4.27	7.28	3.21	3.23	3.2
AUUACCCGGGUCAACGAGUGA [Fam2.1 aminoacylation ribozyme variant]	4.94	9.62	63.5	9.41	9.96	5.11
CUACACUUCAAGCAAGCGGUC [Fam1B.1 aminoacylation ribozyme variant]	0.637	0.772	0.583	0.62	0.541	0.719
CUUCACCUUGGUCAUCGGGUG [Fam2.2 aminoacylation ribozyme variant]	4.27	5.93	45.5	5.39	5.5	3.13
CCACACUUCUAGCAAUCGCUC [Fam1B.1 aminoacylation ribozyme variant]	1.04	0.829	1.02	0.72	0.453	1.11
CCACACUUCAAGCAAUCACUC [Fam1B.1 aminoacylation ribozyme variant]	0.669	0.43	0.957	0.509	0.564	0.591
